Paper PMC9411592
Where two headings read alike, the source gives them in different places.

How the values were obtained:
[1] = target: N-terminal Flag-tagged LRRC33 with its C-terminal transmembrane domain substituted with that of GARP (WT); assay: flow cytometry on cells; details: for response: n = 3, mean ± s.d., read off a plot
[2] = target: N-terminal Flag-tagged LRRC33 with its C-terminal transmembrane domain substituted with that of GARP (WT); assay: flow cytometry on cells; details: n = 3, mean ± s.d., read off a plot
[3] = target: L-TGF-β1 WT with the furin cleavage site between LAP and the growth factor replaced with an HA tag (UniProt P01137); assay: flow cytometry on cells
[4] = target: L-TGF-β1 C4S/R249A (the 'WT' of the SPR assay) (human); assay: SPR; Biacore T200, 25 °C; L-TGF-β1 (C4S/R249A, or + RGEGATG) immobilised on a CM5 chip by amine coupling; integrin headpieces injected at 20 μl/min in 20 mM HEPES pH 7.5, 150 mM NaCl, 1 mM MgCl2, 1 mM CaCl2; 1:1 Langmuir model
[5] = Expi293F cells co-transfected with L-TGF-β1 and LRRC33, anti-HA staining

Substance | other: percentage of L-TGF-β+ (anti-HA+) subset [1] [%] | response ([1]; parent: est. 21000) [MFI] | also measured
L-TGF-β1 WT with the furin cleavage site between LAP and the growth factor replaced with an HA tag (from UniProt P01137) H317I | 9.58 | 2800 | response ([2]; parent: est. 21000): 3600 MFI
L-TGF-β1 WT with the furin cleavage site between LAP and the growth factor replaced with an HA tag (from UniProt P01137) H317L |  | 6000 | 
L-TGF-β1 WT with the furin cleavage site between LAP and the growth factor replaced with an HA tag (from UniProt P01137) I300L |  | 16000 | 
L-TGF-β1 WT with the furin cleavage site between LAP and the growth factor replaced with an HA tag (from UniProt P01137) K309R |  | 15000 | 
L-TGF-β1 WT with the furin cleavage site between LAP and the growth factor replaced with an HA tag (from UniProt P01137) K309T |  | 5500 | 
L-TGF-β1 WT with the furin cleavage site between LAP and the growth factor replaced with an HA tag (from UniProt P01137) K309T; H317L | 15.2 |  | response ([2]; parent: est. 21000): 3400 MFI
L-TGF-β1 WT with the furin cleavage site between LAP and the growth factor replaced with an HA tag (from UniProt P01137) L303A |  | 26000 | 
L-TGF-β1 WT with the furin cleavage site between LAP and the growth factor replaced with an HA tag (from UniProt P01137) L303S |  | 25000 | 
L-TGF-β1 WT with the furin cleavage site between LAP and the growth factor replaced with an HA tag (from UniProt P01137) P296A |  | 16000 | 
L-TGF-β1 WT with the furin cleavage site between LAP and the growth factor replaced with an HA tag (from UniProt P01137) Q306T |  | 13000 | 
L-TGF-β1 WT with the furin cleavage site between LAP and the growth factor replaced with an HA tag (from UniProt P01137) W301A |  |  | other: percentage of L-TGF-β+ (anti-HA+) subset [1, 5]: 28.7%; response ([1]; Expi293F cells, parent: est. 22000): 5300 MFI
L-TGF-β1 WT with the furin cleavage site between LAP and the growth factor replaced with an HA tag (from UniProt P01137) W301R |  | 14000 | 
L-TGF-β1 WT with the furin cleavage site between LAP and the growth factor replaced with an HA tag (from UniProt P01137) W301R; K309T; H317L | 12.3 |  | response ([2]; parent: est. 21000): 3500 MFI
L-TGF-β1 WT with the furin cleavage site between LAP and the growth factor replaced with an HA tag (from UniProt P01137) Y307H |  | 28000 | 
L-TGF-β2 WT with HA tag in place of the furin cleavage site (from UniProt P61812) I350H | 44.6 |  | response ([2]; parent: est. 2800): 11000 MFI
L-TGF-β3 WT with HA tag in place of the furin cleavage site (from UniProt P10600) R328W; T336K; L344H | 21.5 |  | response ([2]; parent: est. 2700): 5500 MFI
L-TGF-β3 WT with HA tag in place of the furin cleavage site (from UniProt P10600) T336K; L344H | 14.4 |  | response ([2]; parent: est. 2700): 4000 MFI
N-terminal Flag-tagged LRRC33 with its C-terminal transmembrane domain substituted with that of GARP (WT) Y174R |  |  | other: percentage of L-TGF-β+ (anti-HA+) subset [3, 5]: 23.1%; response ([3]; Expi293F cells, n = 3, mean ± s.d., parent: est. 22000, read off a plot): 4000 MFI
integrin αVβ8-6DLL headpiece (the disulfide-linked loop of β8 substituted by that of β6) (complex) |  |  | Kd [4]: 0.0198 µM
αVβ8-IgG1 Fc (heterotetramer of αVβ8 linked by the IgG1 Fc fragment on the C-terminus of β8) (Fc fusion) |  |  | Kd [4]: 0.00575 µM
